This passage reports Kd results from publication PMC3082530 (2011).

The target of test [1] is T1, subtilisin Carlsberg (Bacillus licheniformis, UniProt P00780).
T1 chain: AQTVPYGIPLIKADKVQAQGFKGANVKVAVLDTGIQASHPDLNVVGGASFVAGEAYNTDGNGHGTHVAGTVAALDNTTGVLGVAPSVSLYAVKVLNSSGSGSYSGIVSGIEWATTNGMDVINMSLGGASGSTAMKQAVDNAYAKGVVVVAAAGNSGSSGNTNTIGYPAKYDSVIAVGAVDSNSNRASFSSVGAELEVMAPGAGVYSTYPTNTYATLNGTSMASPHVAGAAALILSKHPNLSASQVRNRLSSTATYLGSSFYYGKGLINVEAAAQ
In words: ITC.

Test [2] concerns the target T1, subtilisin Carlsberg. In words: ITC; given as Ka.

On to VCTEEY [VCTEEY peptide (CrSPI-1 domain 2 RSL)], for which the Kd with subtilisin Carlsberg [1] is 500 µM; with subtilisin Carlsberg [2] it was 526 µM.
